Experiments:
[1] = biological target: human FLT3 expressed on CHO cells (human) (UniProt P36888); test: flow cytometry, 10 ug/ml AMG 757 on CHO huFTL3 (negative control) cells, anti-human IgG Fc-APC
[2] = biological target: human DLL3 expressed on the surface of cells (human) (UniProt Q9NYJ7); test: flow cytometry, 10 ug/ml AMG 757 on CHO huDLL3 cells, anti-human IgG Fc-APC
[3] = biological target: rat DLL3 expressed on CHO cells (rat) (UniProt O88671); test: flow cytometry, 10 ug/ml AMG 757 on High CHO rtDLL3 cells, anti-human IgG Fc-APC
[4] = biological target: rat DLL3 expressed on CHO cells (rat) (UniProt O88671); test: flow cytometry, 10 ug/ml AMG 757 on Low CHO rtDLL3 cells, anti-human IgG Fc-APC
[5] = biological target: mouse DLL3 expressed on CHO cells (mouse) (UniProt O88516); test: flow cytometry, 10 ug/ml AMG 757 on CHO muDLL3 cells, anti-human IgG Fc-APC
[6] = biological target: cynomolgus monkey DLL3 expressed on CHO cells (cynomolgus monkey); test: flow cytometry, 10 ug/ml AMG 757 on CHO cynoDLL3 cells, anti-human IgG Fc-APC
Chain of cynomolgus monkey DLL3 expressed on CHO cells (cynomolgus monkey) (chain, as listed by the source, form in doubt): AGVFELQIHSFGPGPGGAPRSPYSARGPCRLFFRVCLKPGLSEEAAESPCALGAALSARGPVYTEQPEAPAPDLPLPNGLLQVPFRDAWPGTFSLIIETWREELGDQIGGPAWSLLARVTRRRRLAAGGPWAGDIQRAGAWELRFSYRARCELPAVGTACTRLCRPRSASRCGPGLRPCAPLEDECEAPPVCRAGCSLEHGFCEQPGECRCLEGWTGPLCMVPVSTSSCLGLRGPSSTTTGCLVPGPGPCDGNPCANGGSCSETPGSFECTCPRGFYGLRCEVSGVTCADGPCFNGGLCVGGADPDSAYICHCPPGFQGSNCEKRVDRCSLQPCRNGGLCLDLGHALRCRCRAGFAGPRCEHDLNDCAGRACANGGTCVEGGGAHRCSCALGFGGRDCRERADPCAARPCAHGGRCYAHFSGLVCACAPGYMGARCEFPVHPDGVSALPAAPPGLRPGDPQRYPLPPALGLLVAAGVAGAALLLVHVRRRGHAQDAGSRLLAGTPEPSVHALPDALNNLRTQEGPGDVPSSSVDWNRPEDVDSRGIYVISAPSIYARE

Chain of rat DLL3 expressed on CHO cells (rat) (O88671 33-589): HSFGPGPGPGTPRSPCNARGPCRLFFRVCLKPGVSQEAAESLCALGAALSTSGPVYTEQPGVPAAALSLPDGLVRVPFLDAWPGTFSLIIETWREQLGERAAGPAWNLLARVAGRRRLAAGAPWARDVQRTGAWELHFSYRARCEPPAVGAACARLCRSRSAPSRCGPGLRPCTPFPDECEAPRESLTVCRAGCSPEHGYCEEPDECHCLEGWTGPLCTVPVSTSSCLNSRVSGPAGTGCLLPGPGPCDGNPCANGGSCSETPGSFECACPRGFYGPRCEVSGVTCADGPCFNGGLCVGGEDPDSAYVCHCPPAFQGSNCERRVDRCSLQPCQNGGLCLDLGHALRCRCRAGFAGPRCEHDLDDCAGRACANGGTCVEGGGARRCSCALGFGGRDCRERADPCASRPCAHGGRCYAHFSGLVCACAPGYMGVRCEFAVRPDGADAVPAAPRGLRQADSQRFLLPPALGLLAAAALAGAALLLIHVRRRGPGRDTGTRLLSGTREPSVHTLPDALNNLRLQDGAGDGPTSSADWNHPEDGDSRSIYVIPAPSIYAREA
Chain of mouse DLL3 expressed on CHO cells (mouse) (O88516 33-592): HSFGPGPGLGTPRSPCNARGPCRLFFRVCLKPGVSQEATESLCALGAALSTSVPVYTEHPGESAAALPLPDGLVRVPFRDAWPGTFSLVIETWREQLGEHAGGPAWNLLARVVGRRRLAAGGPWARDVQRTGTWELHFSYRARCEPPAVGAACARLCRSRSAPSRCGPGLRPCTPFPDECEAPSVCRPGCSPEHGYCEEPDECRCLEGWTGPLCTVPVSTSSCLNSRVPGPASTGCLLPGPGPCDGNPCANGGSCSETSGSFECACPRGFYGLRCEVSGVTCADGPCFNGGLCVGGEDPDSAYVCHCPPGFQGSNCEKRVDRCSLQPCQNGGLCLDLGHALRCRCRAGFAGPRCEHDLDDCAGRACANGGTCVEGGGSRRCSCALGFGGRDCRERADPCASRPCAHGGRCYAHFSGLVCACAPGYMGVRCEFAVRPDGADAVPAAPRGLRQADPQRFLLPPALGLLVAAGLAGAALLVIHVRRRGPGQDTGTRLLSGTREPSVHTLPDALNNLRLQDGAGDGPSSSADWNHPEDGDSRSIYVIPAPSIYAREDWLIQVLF
Chain of human DLL3 expressed on the surface of cells (human) (Q9NYJ7 27-618 limits assumed): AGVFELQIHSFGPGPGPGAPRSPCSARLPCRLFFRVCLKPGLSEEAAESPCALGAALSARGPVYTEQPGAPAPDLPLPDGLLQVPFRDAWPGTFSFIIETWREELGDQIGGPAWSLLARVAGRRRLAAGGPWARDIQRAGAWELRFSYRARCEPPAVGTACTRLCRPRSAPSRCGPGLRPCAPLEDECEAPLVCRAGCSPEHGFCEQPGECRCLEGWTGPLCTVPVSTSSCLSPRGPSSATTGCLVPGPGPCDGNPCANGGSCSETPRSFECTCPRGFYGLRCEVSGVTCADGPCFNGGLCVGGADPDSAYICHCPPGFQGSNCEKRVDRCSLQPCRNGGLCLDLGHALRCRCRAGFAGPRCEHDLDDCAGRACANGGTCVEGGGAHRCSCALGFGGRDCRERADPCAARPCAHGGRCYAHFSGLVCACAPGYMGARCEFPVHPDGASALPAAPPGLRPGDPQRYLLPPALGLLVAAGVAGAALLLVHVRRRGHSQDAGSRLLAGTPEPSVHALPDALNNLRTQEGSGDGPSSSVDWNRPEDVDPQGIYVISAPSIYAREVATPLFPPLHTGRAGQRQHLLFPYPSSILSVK

DLL3 positive cells (%) [1]: 3.3% | DLL3 positive cells (%) [2]: 99.7% | DLL3 positive cells (%) [3]: 98.6% | DLL3 positive cells (%) [4]: 98.6% | DLL3 positive cells (%) [5]: 99.5% | DLL3 positive cells (%) [6]: 98.4%
Substance: AMG 757 (bispecific antibody)

Reference: patent publication US20250074943A1, “DLL3 BINDING PEPTIDES AND USES THEREOF” (AMGEN INC., priority 2021, published 2025)
